Experimental findings from article PMC5148205 are described below.

The target in the series is T1, H-NS (Shewanella oneidensis MR-1) (UniProt Q8ECJ6).
T1 sequence: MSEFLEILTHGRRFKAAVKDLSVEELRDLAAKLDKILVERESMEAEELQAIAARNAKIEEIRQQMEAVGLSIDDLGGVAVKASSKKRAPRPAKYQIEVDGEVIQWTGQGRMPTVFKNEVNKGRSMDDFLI
As to the kind of experiment: EMSA. The following applies: H-NS incubated with biotin-labelled probe with or without unlabelled probe, 1 h at different temperatures; binding buffer not stated (refers to Liu et al. 2015). Background: In EMSA bound probe runs differently from free probe, usually more slowly.

With “GATTTTCTAGTGACAGAAGGTTTTAGCGTTGATAATGCCAAATATGCTGAATTATTTTTGAGACCGAGTAAATTTCTTAGGGGACCAAAAAAACGCATATAATACAATGGATAATGCAATTTAGGTGAGCAAAGGGGACCGTTTTTACCCCGTTTATTCATGCTTCATAACCATCTAATCTCAGGGTTGTAGACGTTTATTCACAACTCTGAGGACGATTATGAACACAACTCTCAC (double strand) [PalpA (alpA promoter)]”, the binding entry is reported as “binds”.

As for “TAGCGATGAAATGGCTTTTTGGGTGGCGGTTTATCGTGATTAACGCAGAAGGTGAAGCGTGGTACATCGATGTTAAACCTGATGCCAAAGTAAAACCTGTTGGTAAAAATAAGGACGGTGCATAATGTTTCAGCAAGAAATAGAAGCTATGCAGGGTAAAGTGGTGCAGCAG (double strand) [PSO_3012 (LambdaSo excisionase promoter)]”, the binding result is “no binding”.
